Consider 41 sequences from the nanobody polyreactivity screen of Harvey et al. (2022).

The nature of the data set: yeast display, Sf9 membrane polyspecificity reagent, FACS + sequencing; frameworks hold sequencing errors. In short, it runs like this: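 Synthetic nanobody libraries on Saccharomyces cerevisiae BJ5465 were galactose-induced for 36–48 hours, stained 1 hour at 4 °C with 10% biotinylated, detergent-solubilized Sf9 membrane reagent and enriched on streptavidin microbeads. FACS then separated cells into low and high (top ~1%) gates by anti-HA (expression) and streptavidin (reagent binding) fluorescence. Genes were colony-PCR amplified, MiSeq 2 × 250 sequenced and CDR-length filtered. A clone's polyreactivity label is that of its gate of origin.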
For “QVQLVESGGGLVQAGGSLRLNCAASGSIFDHYAMGWYRQAPGKERELVAAINIRTGYTYYADSVKGRFTISRDNAKNTVYLQMNSLKPEDTAVYYCNRVVRGFVRHLDYWGQGTQVTVSS”, the “polyreactivity (PSR sort gate)” value is “low polyreactivity”.
Under “QVQLVESGGGVVQAGGSLRLSCAASGSHFISNAMGWYRQAPGKERELVAAITSSGGSTYYADSVKGRFTISRDNAKNTVYLQMNSLKPEVTAVYYCAARPGRNYYYWGQGTQVTVSS” stands “high polyreactivity”; under “QVQLVESGGGLVQAGASLRLSCAASGRTFLRYAMGWYRQAPGKERELVAAISSRGGSTYYADSVKGRFTISRDNAKNTVYLQMNSLIPEDTAVYYCAARGCRSQVPVRVFRYDFWGQGTQVTVSS”, “high polyreactivity”.
Take “QVKLKESVGGLVQAGGSLRLSCAASGSISATGHMGWYRQAPGEERELVAAINFGSNTYYADSVKGLFTISRDNAINTVYLQKSGLKPEDTAVYYWAVDGWYVGPYYYWGQGTQVTVSS”: the “polyreactivity (PSR sort gate)” value is “high polyreactivity”.
Under “HVQLVESGGGLVQAGGSLRLSCAASGSTFDVYAMGWYRQAPGKERELVAAISRSGGSTYYADSVKGRFTISRDNAKNTVYLQMNSLKPEDTAVYYCNARLARWGSYEYNYWGQGTQVTVSS” stands “low polyreactivity”.
Under “QVQLVESGGGLVQAGGSLRLTCAASGLILDGYAMGWYRQAPGKERELVAAITRSGGRTYYADSVKGRFTISRDNAKNTVYLQMNSLKPEDTAVDYCAADTYRYHLIATDDYWGQGTQVTVSS” stands “high polyreactivity”; under “QVQLEDSGGGLVQAGGSLRLSCAASGSIFYSNSMGWYRQAPGKERELVAAISSSGSRTYYADSVKGRFTISRDNAKNTVYLQMNSLKPEYTAVYYCSAVIRYTRSYDYWGQGTQLTVSS”, “high polyreactivity”.
Regarding “QVQLEESGGGLVQAGVSLRLSCAASGSTFSLYAMGWYRPAPGKERELVAAISSGGRTNYADSVKGRFTISRDNAKKTVYLQMNSLKPEDTAVYYCAARIQWPTWSLYYYWGQGTQVTVSS”, the “polyreactivity (PSR sort gate)” value is listed as “high polyreactivity”.
For “QFQLVESGGGLVQAGGSLRLSCAASGRTFWWYAMGWYRQAPGKERELVAAITSRGTTYYADSVKGRFTISRDNAKNTVYLQMNSLKPEDTAVYYCNAVQATRYTDYDYWGQGTQVTVSS”, the “polyreactivity (PSR sort gate)” value is “high polyreactivity”.
Turning to “QVQLVESGGGLVQAGGSLRLSCAASGFIFQVYAMGWYRQAPGKERELVAAISDDGSTNYADSVKGRFTISRDNAKYTVYLQMNSLKPEDTAVYYCAKESWGRLYYRYDYWGQGTQVTVSS”, the “polyreactivity (PSR sort gate)” value was “low polyreactivity”.
Under “QVQLVESGGGLVQAGGSLRLSCAASGRTFTFYAMGWYRQAPGKERELVAAITWSGGSTYYADSVKGRFTISRDNAKNTVYLQRNSLKPEDTAVYYCAKLDVISDDLDYWGQGTQVTVSS” stands “low polyreactivity”; under “QVQLVESGGGLVQAGGSLRLSCAASGLIFGRNAMGWYRQAPGKERELVAAISWSGGSTYYADSVKGRFTISRDNAKNTVYLQMNSLKPEDTAVYYCNRYRYYGSEDDYWGQGTQVTVSS”, “high polyreactivity”.
As for “QVQLVETRGGLVQAGGTLRLSFAASGSTFSYYTMGWYRHAPGTERELVGSIDSSGGSTYYADSVKGRFTISRDNAQNTVYLQMNSLKPEDTAVYYCATGDEWGYDYWGQGTQVTVSS”, the entry is “low polyreactivity”; as for “QVQLVESGGGLVQAGGSLRLSCAAYGIIFRRNAMGWYRQAPGKERELVAAISWSGGTTYYADSVKGRFTISRDNAKYTVYLQIISLKPEDTAVYYCAAGLISRPYGYDYWGQCTQVTVSS”, “high polyreactivity”; as for “QVQLVESGGGLVQAGGSLRLSCAASGSIFEGNAMGWYRQAPGKERELVAAISTTGGITYYADSVKGRFTISRDKAKNTVYLQMNSLKPEDTAVYYCAADPSQPRIDSSNYDYWGQGTQVTVSS”, “low polyreactivity”.
As for “QVELVESGGGLVQAGGSLRLSCSASGSIFYKYAMGWYRQAPGKERELVAAIRVSGGSTYYADSVKGRFTISRDNAKNTVYLQMNSLKPEDTAVYYCAAESKFPWGYRYDYWGQGTQVTVSS”, the “polyreactivity (PSR sort gate)” value is recorded as “low polyreactivity”.
As for “QVQLVESGGGLVQAGGSLRLSCAASGFIFRYNAMGLYRQAPGKERELVARINSGVSTNYADSVKGRFTISRDNAKNTVYLQMNSLKPEDTAVYYCNARVRRGYSRFDYWGQGTQVTVSS”, the entry is “high polyreactivity”; as for “QVQLVESGGGIVQAGGSLRLSFAASGSIFEINALGWYRQAPGKERELVAAITGSGGSTHYADSVKGRFTISRDTAKNTVYLQMNSLKPEDTAVYYCARTQRYDYGYDYWGQGTQVTVSS”, “low polyreactivity”.
As for “QVQLVESGGGLVQAGGSLRLSCAASGTTFPIYAMGWYRQAPGKERELVADITSTGSTDYADSVKGRFTISRDNAKNTVYLQMNSLKPEDTAVYYCAAAWKAYRRYGYWGQGTQVTVSS”, the entry is “high polyreactivity”; as for “QVQLVESGGGLVQAGCSLRLSCAASGSIFTSYAMGWYRQAPGKERELVAAINRSSGTTYYAHSVKGRFTISRDTAKNTVYLQMNSLKREDTAVYYCAKEYGIYTDTPYYYWGQGTQVTVSS”, “low polyreactivity”.
For the sequence “QFQLVESGGGLVQAGGSLRLSCAASGSIFRGYTMGWYRQAPGKERELVAAISWSGGSTYYADSVKGRFTISRDNAKNTVYLQMNSLKPEDTAVYFCAAGDYYHRIFLWYDYWGQGTQVTVSS”, the “polyreactivity (PSR sort gate)” value is “low polyreactivity”.
As for “QVQLVESGGGLVQAGGSLRLSCAASGFTVDYYAMGWYLQAPGKERELVAAISSSGGSTYYADSVKGRFTISRDNAKNTVYLLMNSLKPEDTAVYYCATGHSKQYDYWGQGTQVTVSS”, the entry is “high polyreactivity”; as for “QVQLVESGGGLVQAGGSLRLSSAGSGFTFYKNAMGWYRQAPGKERELVAAITSSGGSTYYADSVKGRFTISRDNEKNTVYLQMNSLKPEDTAVYYCNKVYSKHYGYWGQGSQVTVSS”, “high polyreactivity”.
As for “QVQLVESGGGLVQAGGSLRLSCAASGRTFSWYVMGWYRQAPGKERELVAAISWNGGRTYYADSVKGRFTISRDNAKNTVYLQMNSLKPEDTAVYYCNRDYYWRDGAKYIDDYWGQGTQVTVSS”, the entry is “high polyreactivity”; as for “QVQLVESGGGLVQEGGSLRLSCACSARTITGYAIGWYRQAPGQEWEVVAAIYRRGASTYYADSVKGRFTISRDNAKNTVYLEMNSLKPEDTAVDYCAAYLYGLWSVGRDYWGQGTQVTVSS”, “high polyreactivity”; as for “QVQLVESGGGLVQAGGSLRLSCAASGIISPFYAMGWYRQATGKERELVADISTGGTTTYADSVKGRFTISRDNAKNTVYLQLNSLKPEDTAVYYCNAEVSLTYYWIVWASYDYWGQGTQVTVSS”, “low polyreactivity”.
Under “QVQLVESGGGLVQAGGSLRLSCAASGRTFRTNAIGWYRQATGKERELVAAIRASTGSTYYADSVKGRFTISRDNAKNSVYLQMNSLKPEDTAFYYCAARLRRGLTATWYYYWGQGTQVTVSS” stands “high polyreactivity”; under “QVQLVESGGGLVQAGGSLRLSCAASGSTFGGNDMGWYRQAPGKERELVAAISSGTSTNYADSVKGRFTISRDNAKNTVYLQMNSLKPEDTAVYYCNAGFWYRRTYDYWGQGTQVTVSS”, “low polyreactivity”; under “QVQLVESGGGLVQAGGSLRLSCAASGSILVNAIGWYRQAPGKEREFVAAISSGGSTKYADSVKGRFTMSRDNATNTDYLLMNSLKPEDTEVYYCAARVVTSRLSGGTTHPFILYYWGQGTQVTVSS”, “high polyreactivity”.
On to “QVQLVESGGGLVQAGGSLRLSCAASGSIFSSYAMGWYRQAPGKERELVAAISQSGGDTYYADSVKGRFTISRDNAKYTVYLQMNSLKPDDTAVYYCAASVWYFPMDYWGQGTQLTVSS”, for which the “polyreactivity (PSR sort gate)” value is listed as “low polyreactivity”.
Under “QVQLVESGGGLVQAGGSLRLSCAATGSIFYVNAMGWYRQAPGKERELVAVNADSVKGRFTISRDNAKNTVYLQMNSLKPEDTAVYYCAAGVNSTTRIYDYWGQGTQVTVSS” stands “low polyreactivity”.
As for “QVQLVESGGGLVQAGGSLRLSCAASGFIFAYYAMGWYRQAPGKERELVAAITIDGSTNYADSVKGRFTISRDNAKNTVYVQMNSLKPEDSAVYYCAAAEHPPVWYGYWGQGTQVTVSS”, the entry is “low polyreactivity”; as for “QVQLVESGGGLVQAGGSLRLSCAPSGRIFSYFAMGWYRQAPGKERELVAAISGNGGSTYYADSVKGRFTISRDNAKNTVYLQMNSLKPEDTAVYYCAADWWSSDWAYLYPYSYDYWGQGTQVTVSS”, “low polyreactivity”.
Under “QVQLVESGGGLVQAGGSLRLSCAASGLTFSDYAMGWYRQAPGKERELVAAITYNGGSTYYADSVKGRFTISRDNAKNTVYLQMNSLKPEDTAVYYCAADTDDVGLRDYWGQGTQVTVSS” stands “low polyreactivity”; under “QVQLVQSGGGLFQAGGSLRLSCAPSGSIFDPNALGWYRQAPAKERELVAAISSGGSRKYSDSVKGRFTISRDNAKNTVYLQMNRLIPEDTAVYYCDASPRQGMYYWGQGTQVTVSS”, “high polyreactivity”; under “QVQLVESGGGLVQAGGSLRLSCAASGSTFGPNTMGWYRQAPGKERELVAAITTRGGRTYYADSVKGRFTISRDNAKNTVYLQMNSLKPEDTAVYYCAASAPYYGRGGLVGYWGQGTQVTVSS”, “high polyreactivity”.
As to “QVQLVESGGGLVQAGGSLRLSCAASGSIFYEYAMGWYRQAPGKEREFVASISWSGGITYYADSVKGRFTISRDNAKNTVYLQMNSLKPEDTAVYYCAADFSWYLYDYDYWGQGTQVTVSA”, the “polyreactivity (PSR sort gate)” value is reported as “low polyreactivity”.
“QVQLVESGGGLVQAGGSLRLSCAASGFTFRYYAMGWYRQAPGKEREFVAAIRSSGTTTSYADSVKGRFTISRDNAKNTVYLHMHSLKPEDTAVYYCAAGYFGPQQYYYWGQGTQVTVSS”: the “polyreactivity (PSR sort gate)” value is on record as “high polyreactivity”.
Under “QVQLVESGGGLVQAGGSLRLSCAASGRTFQYYAVGWYRQAPGKERELVAAITSGGSTYYADSVKGRFTISRDNAKNTVYLQMNSLKPEDTAVYYCAAKRNVQLGYTVQSLYDYWGLGTQVTVSS” stands “low polyreactivity”; under “QVQLVESGGGLVQAGGSLRLSCAASGRIFYPNAMGWYRQAPGKERELVAAISWSGGSTYYADSVKGRFTISRDNAKNTVYLQMNSLKPEDTAVYYCNAEYRYYQKTPGRYTNVEYDYWGQGTQVTVSS”, “low polyreactivity”; under “QVQLVESGGGLVQAGGSLRLSCAASGRIFDQYAMAWYRQAPGKERELVATISGSGGSTYYADSVKGRFTISRDNAKNTVYLQMNSLKPEDTAVYYCAAVSVSSWYDYWGQGTQVTVSS”, “low polyreactivity”.
